Assay results reported in PMC5674874 (The Journal of Cell Biology, 2017).
Where a chain is given by its changes, count along the chain named.

Assays:
Stu2-WT-Flag = target: T1, Stu2-WT-Flag (S. cerevisiae, UniProt P46675 1-888); experiment: SEC
T1 sequence (looked up): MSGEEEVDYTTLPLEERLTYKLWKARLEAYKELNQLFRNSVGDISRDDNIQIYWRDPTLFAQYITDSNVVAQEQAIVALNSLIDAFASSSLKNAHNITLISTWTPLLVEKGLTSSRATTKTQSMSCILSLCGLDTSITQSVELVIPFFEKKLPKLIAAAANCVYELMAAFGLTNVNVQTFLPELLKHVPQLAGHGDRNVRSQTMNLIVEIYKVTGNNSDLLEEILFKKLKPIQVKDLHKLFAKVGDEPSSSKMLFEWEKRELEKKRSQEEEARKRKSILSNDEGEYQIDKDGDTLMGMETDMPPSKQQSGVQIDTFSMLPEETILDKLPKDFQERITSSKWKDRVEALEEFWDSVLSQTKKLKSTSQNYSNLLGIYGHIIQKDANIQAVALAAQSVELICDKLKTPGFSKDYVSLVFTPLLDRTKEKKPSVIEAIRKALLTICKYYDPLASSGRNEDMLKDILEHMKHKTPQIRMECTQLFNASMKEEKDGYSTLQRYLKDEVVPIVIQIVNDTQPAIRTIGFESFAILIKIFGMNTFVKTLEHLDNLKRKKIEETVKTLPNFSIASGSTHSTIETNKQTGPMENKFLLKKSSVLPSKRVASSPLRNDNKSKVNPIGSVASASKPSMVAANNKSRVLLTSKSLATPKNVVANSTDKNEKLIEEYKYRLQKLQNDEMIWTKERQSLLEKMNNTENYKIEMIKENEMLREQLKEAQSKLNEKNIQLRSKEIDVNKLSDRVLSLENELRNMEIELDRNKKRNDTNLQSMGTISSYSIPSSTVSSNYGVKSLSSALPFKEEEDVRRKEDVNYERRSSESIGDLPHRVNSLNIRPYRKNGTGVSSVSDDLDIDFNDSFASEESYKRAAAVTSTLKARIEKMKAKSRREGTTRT

Stu2-2D-Flag = target: T2, Stu2-2D-Flag (S. cerevisiae, UniProt P46675 1-888, S813D | S815D); experiment: SEC
T2 sequence (looked up): T1 sequence (looked up) with S813D, S815D

B1: Bik1 (recombinant, from StrepII-TEV-Bik1) (natural protein, S. cerevisiae, UniProt P11709 1-440, looked up)
chain: MDRYQRKIGCFIQIPNLGRGQLKYVGPVDTKAGMFAGVDLLANIGKNDGSFMGKKYFQTEYPQSGLFIQLQKVASLIEKASISQTSRRTTMEPLSIPKNRSIVRLTNQFSPMDDPKSPTPMRSFRITSRHSGNQQSMDQEASDHHQQQEFGYDNREDRMEVDSILSSDRKANHNTTSDWKPDNGHMNDLNSSEVTIELREAQLTIEKLQRKQLHYKRLLDDQRMVLEEVQPTFDRYEATIQEREKEIDHLKQQLELERRQQAKQKQFFDAENEQLLAVVSQLHEEIKENEERNLSHNQPTGANEDVELLKKQLEQLRNIEDQFELHKTKWAKEREQLKMHNDSLSKEYQNLSKELFLTKPQDSSSEEVASLTKKLEEANEKIKQLEQAQAQTAVESLPIFDPPAPVDTTAGRQQWCEHCDTMGHNTAECPHHNPDNQQFF
- binding result (Stu2-WT-Flag): binds
- binding result (Stu2-2D-Flag): binds
